Paper PMC12594925 (Nature Communications, 2025)

Assays:
DOR in D-cells = DOR in D-cells (Rattus norvegicus, UniProt P33533)
KOR in K-cells = KOR in K-cells (Rattus norvegicus, UniProt P34975); assay: Ca2+ mobilization via Gqi5; type: cell-based
MOR in M-cells = MOR in M-cells (Rattus norvegicus, UniProt P33535); assay: Ca2+ mobilization via Gqi5; type: cell-based; conditions: [FMax-Fb]/Fb of Fluo-4
MOR-MOR (MM) homodimer = MOR-MOR (MM) homodimer (Rattus norvegicus, UniProt P33535); conditions: cited from earlier work
MOR and DOR in MD-cells = MOR and DOR in MD-cells (Rattus norvegicus, UniProt P33535); assay: Ca2+ mobilization via Gqi5; type: cell-based; conditions: increase greater with DAMGO than morphine
DOR-MOR = DOR-MOR (Rattus norvegicus, UniProt P33535); assay: cAMPinG1 cAMP inhibition assay, cells expressing DOR-MOR; type: cell-based; conditions: 7 µM forskolin then 50 nM DAMGO; MOR and DOR at 5-10 fluorescent spots/µm2
DOR-MOR (DM) heterodimer = DOR-MOR (DM) heterodimer (Rattus norvegicus, UniProt P33533+P33535); type: binding; conditions: for Effect on DM heterodimerization: DOR and MOR at 0.5-1.0 spots/µm2
DOR-KOR (DK) heterodimer = DOR-KOR (DK) heterodimer (Rattus norvegicus, UniProt P33533+P34975); assay: DK colocalization index, two-color single-molecule TIRF imaging; type: binding
DOR = DOR (Rattus norvegicus, UniProt P33533); assay: Colocalization of expressed TM peptides with WT-DOR; type: binding; conditions: all molecules expressed at 0.5–1.0 fluorescent spots/µm2
MOR = MOR (Rattus norvegicus, UniProt P33535); assay: Colocalization of expressed TM peptides with WT-MOR; conditions: both expressed at 0.5–1.0 fluorescent spots/µm2
Sequence of MOR (P33535 whole entry): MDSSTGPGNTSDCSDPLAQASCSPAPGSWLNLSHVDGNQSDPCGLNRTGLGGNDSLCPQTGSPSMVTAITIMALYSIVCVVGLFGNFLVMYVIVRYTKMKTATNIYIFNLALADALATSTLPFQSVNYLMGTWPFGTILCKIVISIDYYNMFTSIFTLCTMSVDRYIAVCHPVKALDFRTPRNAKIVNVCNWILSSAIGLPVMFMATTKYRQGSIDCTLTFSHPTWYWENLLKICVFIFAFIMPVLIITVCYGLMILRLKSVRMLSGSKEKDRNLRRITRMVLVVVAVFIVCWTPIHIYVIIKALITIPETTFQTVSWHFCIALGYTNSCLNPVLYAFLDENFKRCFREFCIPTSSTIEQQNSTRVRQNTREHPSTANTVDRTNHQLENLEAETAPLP

Sequence of DOR-MOR (DM) heterodimer (P33533 whole entry): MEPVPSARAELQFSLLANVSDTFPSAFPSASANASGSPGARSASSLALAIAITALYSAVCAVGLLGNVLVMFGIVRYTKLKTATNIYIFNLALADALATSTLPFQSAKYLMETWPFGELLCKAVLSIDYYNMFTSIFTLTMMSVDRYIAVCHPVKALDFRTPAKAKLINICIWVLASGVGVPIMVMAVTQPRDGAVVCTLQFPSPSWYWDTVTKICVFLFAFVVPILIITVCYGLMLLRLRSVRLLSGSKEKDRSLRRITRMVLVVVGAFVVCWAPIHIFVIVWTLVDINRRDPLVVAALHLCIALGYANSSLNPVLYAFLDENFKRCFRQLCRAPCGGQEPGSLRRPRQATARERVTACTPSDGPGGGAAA
Sequence of DOR-MOR (DM) heterodimer (P33535 whole entry): as the sequence (P33535 whole entry) above
Sequence of DOR (P33533 whole entry): as the sequence (P33533 whole entry) above
Sequence of KOR in K-cells (P34975 whole entry): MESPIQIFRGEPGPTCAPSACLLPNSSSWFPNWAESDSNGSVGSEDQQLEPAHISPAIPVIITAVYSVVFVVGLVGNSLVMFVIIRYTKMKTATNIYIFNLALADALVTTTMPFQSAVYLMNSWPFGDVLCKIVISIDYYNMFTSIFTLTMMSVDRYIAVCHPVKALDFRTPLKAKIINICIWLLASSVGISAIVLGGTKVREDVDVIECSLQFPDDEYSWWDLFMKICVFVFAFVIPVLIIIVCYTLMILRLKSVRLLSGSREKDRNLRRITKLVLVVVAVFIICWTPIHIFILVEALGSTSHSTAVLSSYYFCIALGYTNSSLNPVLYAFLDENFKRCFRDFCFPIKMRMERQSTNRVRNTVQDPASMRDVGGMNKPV
Sequence of DOR-KOR (DK) heterodimer (P33533 whole entry): as the sequence (P33533 whole entry) above
Sequence of DOR-KOR (DK) heterodimer (P34975 whole entry): as the sequence (P34975 whole entry) above
Sequence of DOR in D-cells (P33533 whole entry): as the sequence (P33533 whole entry) above
Sequence of MOR in M-cells (P33535 whole entry): as the sequence (P33535 whole entry) above
Sequence of DOR-MOR (P33535 whole entry): as above
Sequence of MOR and DOR in MD-cells (P33535 whole entry): as above
Sequence of MOR-MOR (MM) homodimer (P33535 whole entry): as above

C[C@@H](NC(=O)[C@@H](N)Cc1ccc(O)cc1)C(=O)NCC(=O)N(C)[C@@H](Cc1ccccc1)C(=O)NCCO [DAMGO]
Ca2+ response to M-agonist (DOR in D-cells): No response was evident
Ca2+ response to M-agonist (KOR in K-cells): No response was evident
Ca2+ signal induced by M-agonist (MOR in M-cells): induced comparable Ca²⁺ signals
Effect on MM homodimerization and MM dimer lifetime (MOR-MOR (MM) homodimer): enhanced MM homodimerization and slightly elongated the MM dimer lifetime
Ca2+ response to M-agonist compared to M-cells (MOR and DOR in MD-cells): enhanced Ca²⁺ responses
DAMGO-induced cAMP concentration decrease via Gi (DOR-MOR): greater when DOR was co-expressed

EL3-domain peptide of MOR: peptide with the MOR EL3 sequence (IIKALVTIPETTFQTV; UniProt P35372 303-318, looked up, fragment)
Blocking of DM heterodimers (DOR-MOR (DM) heterodimer; soluble EL3-domain peptides (Supplementary Fig. 2b)): failed to block DM heterodimers
Blocking of DK heterodimerization (DK colocalization index) (DOR-KOR (DK) heterodimer): but not that of MOR, block DK heterodimerization

Nterm-TM1^MOR: TM1^MOR construct also containing amino acids 53-70 before the TM1 domain (GGRDSLCPPTGSPSMITAITIMALYSIVCVVGLFGNFLVMYVIVRYT; UniProt P35372 53-99, looked up, fragment)
Effect on DM heterodimerization (DOR-MOR (DM) heterodimer): suppressed DM heterodimerization in an expression level-dependent manner
Colocalization with WT-DOR (DOR): colocalized with DOR, like the full-length MOR

TM1^DOR: DOR TM1 peptide expressed in the PM (ITALYSAVCAVGLLGNVLVMFGIVRYTKM; UniProt P41143 52-80, looked up, fragment)
Colocalization with WT-MOR (MOR): moderately colocalized with MOR

TM1^MOR: membrane-integral peptide, MOR TM1 (amino acids 71-99), expressed in the PM (ITIMALYSIVCVVGLFGNFLVMYVIVRYT; UniProt P35372 71-99, looked up, fragment)
Effect on DM heterodimerization (DOR-MOR (DM) heterodimer): suppressed DM heterodimerization in an expression level-dependent manner
Colocalization with WT-DOR (DOR): colocalized with DOR, like the full-length MOR
